Laboratory results reported in publication PMC3303803, “Identification of the First Functional Toxin-Antitoxin System in Streptomyces” (PLoS ONE, 2012).

T1: YefMsl-YoeBsl antitoxin (untagged YefM of natural complex);YoeB-His6sl (toxin) (Streptomyces lividans 1326?;Streptomyces lividans 1326?), ORF:ca022027+Q9Z4V8
T1 sequence 1: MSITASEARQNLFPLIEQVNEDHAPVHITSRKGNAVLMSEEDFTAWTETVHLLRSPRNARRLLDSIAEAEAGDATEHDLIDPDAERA
T1 sequence 2: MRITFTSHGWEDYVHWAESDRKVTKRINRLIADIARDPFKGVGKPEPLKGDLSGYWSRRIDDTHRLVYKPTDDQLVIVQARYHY

T2: YefM-His6sl (antitoxin);YoeB-His6sl (toxin) (Streptomyces lividans 1326?;Streptomyces lividans 1326?), ORF:ca022027+Q9Z4V8
T2 sequence 1: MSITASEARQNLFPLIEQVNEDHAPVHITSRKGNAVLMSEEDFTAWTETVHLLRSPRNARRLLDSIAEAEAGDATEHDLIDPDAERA
T2 sequence 2: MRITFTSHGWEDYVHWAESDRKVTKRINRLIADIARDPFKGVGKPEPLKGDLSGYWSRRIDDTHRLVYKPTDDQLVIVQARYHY

T3: S. lividans antitoxin YefM-His6sl (Streptomyces lividans, UniProt Q9Z4V7 1-87)
T3 construct: YefMsl, putative antitoxin of the yefM/yoeBsl operon of Streptomyces lividans 1326; identical to S. coelicolor SCO2235 (YefMsc); 9.7 kDa; Cloned with primers LS-005/LS-022 between NdeI and XhoI of pET22b; also called YefMsl; source: E. coli BL21 (DE3), pET22b-Anti, purified (NTA-Ni, dialysis); not shown: His6, C-terminal, kept
T3 sequence (looked up): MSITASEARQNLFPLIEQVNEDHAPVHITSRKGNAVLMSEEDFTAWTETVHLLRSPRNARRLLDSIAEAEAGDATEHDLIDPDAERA

B1: S. lividans toxin YoeB-His6sl (natural protein, Streptomyces lividans, UniProt Q9Z4V8 1-84, looked up)
chain: MRITFTSHGWEDYVHWAESDRKVTKRINRLIADIARDPFKGVGKPEPLKGDLSGYWSRRIDDTHRLVYKPTDDQLVIVQARYHY
notes: also called YoeBsl; toxin-His6; not shown: His6, C-terminal, kept

What was measured:
[1] = tested on: T1, YefMsl-YoeBsl antitoxin (untagged YefM of natural complex);YoeB-His6sl (toxin) (Streptomyces lividans 1326?;Streptomyces lividans 1326?), ORF:ca022027+Q9Z4V8; experiment: EMSA
[2] = tested on: T2, YefM-His6sl (antitoxin);YoeB-His6sl (toxin) (Streptomyces lividans 1326?;Streptomyces lividans 1326?), ORF:ca022027+Q9Z4V8; experiment: EMSA
[3] = target: T3, S. lividans antitoxin YefM-His6sl; experiment: native gel or EMSA; details: both partners purified

| Molecule | binding [1] | binding [2] | binding result [3] |
| --- | --- | --- | --- |
| TTTTTTCATATGACCAGTGCCTCCCTTCCTCGGCTGGTACAAGATATCGTACGAGTCTGGGACGGTCCACCGGAAAGCGGGAGCGGTACGTCCCGGCGCCCGCACGCCGTTCCCCGGCTACGCTCAGCCCGTACGACCTTGATCCGACCGGGCCCACGTGCCCCGCAGCCCGACAGGAGGCCGAGAATTCAAAAAA (double strand) [TA promoter (yefM/yoeBsl intergenic region)] | binds | binds |  |
| B1 |  |  | binds |
